{"source": "patent US20140221622A1", "binders": {"B1": {"name": "DB001 DVD-Ig (CD3 and EGFR) (bispecific antibody)", "VH": "QVQLQESGPGLVKPSQTLSLTCTVSGYSISSDFAWNWIRQPPGKGLEWMGYISYSGNTRYQPSLKSRITISRDTSKNQFFLKLNSVTAADTATYYCVTAGRGFPYWGQGTLVTVSSASTKGPEVQLVESGGGLVQPGGSLRLSCAASGFTFSTYAMNWVRQAPGKGLEWVGRIRSKYNNYATYYADSVKDRFTISRDDSKNTAYLQMNSLRAEDTAVYYCTRHGNFGNSYVSWFAYWGQGTLVTVSS", "VL": "DIQMTQSPSSMSVSVGDRVTITCHSSQDINSNIGWLQQKPGKSFKGLIYHGTNLDDGVPSRFSGSGSGTDYTLTISSLQPEDFATYYCVQYAQFPWTFGGGTKLEIKTVAAPSVFIFPPDAQVTQSPSSLSASVGDRVTITCRSSTGAVTTSNYANWVQEKPGKLFKGLIGGTNKRAPGVPSRFSGSGSGTDATLTISSLQPEDFATYFCALWYSNLWVFGGGTKVEIKR"}}, "target": "EGFR on U87MG.de2-7 cells (UniProt P00533)", "test": "flow cytometry on U87MG.de2-7 cells, Alexa Fluor 488 anti-human IgG Fc"}
{"binder": "B1", "values": [{"measurement": "EC50", "result": 9, "unit": "nM"}]}
